Two molecules from US20250066508A1 (SHENYANG SUNSHINE PHARMACEUTICAL, published 2025) can be followed below.

Test [1] has as its target Mouse MASP2-CCP1/2-SP-RQSA (mouse, UniProt Q91WP0 298-685). The test can be described thus: ELISA, antigen coated 20 ng/well. The method, then:
(§1) The enzyme-linked immunosorbent assay (ELISA) method used in the following examples is described as follows: the microplate was coated with the corresponding recombinant protein, and PBST containing 1% bovine serum albumin (PBST is phosphate buffer containing 0.05% Tween-20) was used to block the microplate. The antibody to be tested was serially diluted, then transferred to the above-mentioned microplate coated with recombinant protein, followed by incubation at room temperature for half an hour. After washing the plate, appropriately diluted HRP (Horseradish Peroxidase)-labeled goat anti-human antibody (Fc specific, purchased from Sigma) was added, followed by incubation at room temperature for half an hour. After washing the plate, 100 μl of chromogenic solution with TMB (3,3′,5,5′-Tetramethylbenzidine) was added as substrate to each well, followed by incubation at room temperature for 1 to 5 minutes. 50 μl stop solution (2M H₂SO₄) was added to stop the reaction. OD450 was read by a plate reader (SpectraMax 190). GraphPad Prism7 was used for graphing and data analyzing, and EC₅₀/IC₅₀ was calculated.
Background: In an ELISA, binding on a coated surface is turned into a signal by an enzyme label.

In the next test the target is Rat MASP2-CCP1/2-SP-RQSA (rat, UniProt Q9JJS8 298-685). The test can be described thus: ELISA, antigen coated 20 ng/well. The method, then: as §1
Chain of Rat MASP2-CCP1/2-SP-RQSA (Q9JJS8 other isoform, or with tags, fused parts or gaps limits assumed): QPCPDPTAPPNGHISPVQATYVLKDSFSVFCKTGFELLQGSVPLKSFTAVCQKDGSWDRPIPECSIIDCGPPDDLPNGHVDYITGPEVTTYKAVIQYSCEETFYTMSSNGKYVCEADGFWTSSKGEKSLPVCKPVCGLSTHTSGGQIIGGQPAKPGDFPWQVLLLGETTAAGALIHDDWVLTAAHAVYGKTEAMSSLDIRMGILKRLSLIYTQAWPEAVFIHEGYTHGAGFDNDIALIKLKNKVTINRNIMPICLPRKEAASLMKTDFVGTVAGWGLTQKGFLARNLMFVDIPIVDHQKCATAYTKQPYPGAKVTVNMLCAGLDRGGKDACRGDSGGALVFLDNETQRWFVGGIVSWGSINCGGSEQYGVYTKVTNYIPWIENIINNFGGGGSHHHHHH
In another test the target is T1, MASP3-CCP1/2-SP-RQSA (human).
T1 construct: also called human MASP-3; human MASP3-CCP1/2-SP-RQSA
T1 chain: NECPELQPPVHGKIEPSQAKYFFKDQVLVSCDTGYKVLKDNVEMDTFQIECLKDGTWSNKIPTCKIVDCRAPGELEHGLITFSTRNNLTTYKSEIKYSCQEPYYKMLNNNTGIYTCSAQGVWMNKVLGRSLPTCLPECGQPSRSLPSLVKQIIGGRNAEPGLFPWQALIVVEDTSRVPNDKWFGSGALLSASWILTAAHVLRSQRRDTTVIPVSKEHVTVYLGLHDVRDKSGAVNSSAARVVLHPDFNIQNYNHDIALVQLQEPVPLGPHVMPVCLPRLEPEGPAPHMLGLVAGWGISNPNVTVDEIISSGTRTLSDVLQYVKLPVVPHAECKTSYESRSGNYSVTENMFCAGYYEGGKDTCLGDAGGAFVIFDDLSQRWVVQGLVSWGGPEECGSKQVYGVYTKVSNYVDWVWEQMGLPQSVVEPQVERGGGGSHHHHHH
The test can be described thus: ELISA, plate coated with MASP3-CCP1/2-SP-RQSA (20 ng/well), HRP goat anti-human Fc, OD450. As for the experimental part:
as §1

Test [2] deals with T2, Rhesus MASP2-CCP1/2-SP-RQSA (rhesus macaque, UniProt O00187 298-686 (human entry), limits assumed).
T2 construct: also called rhesus macaque MASP-2
T2 sequence (O00187 other isoform, or with tags, fused parts or gaps limits assumed): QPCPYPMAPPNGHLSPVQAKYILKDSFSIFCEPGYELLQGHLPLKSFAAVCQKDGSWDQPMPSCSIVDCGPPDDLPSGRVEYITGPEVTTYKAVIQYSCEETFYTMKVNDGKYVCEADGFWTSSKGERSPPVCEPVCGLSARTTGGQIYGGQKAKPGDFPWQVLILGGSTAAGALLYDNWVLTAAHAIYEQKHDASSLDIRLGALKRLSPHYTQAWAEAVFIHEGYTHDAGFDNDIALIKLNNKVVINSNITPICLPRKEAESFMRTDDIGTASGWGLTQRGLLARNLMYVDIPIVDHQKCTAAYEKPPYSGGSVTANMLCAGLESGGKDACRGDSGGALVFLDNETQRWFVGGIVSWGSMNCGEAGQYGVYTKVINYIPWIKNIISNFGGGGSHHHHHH
In words: ELISA, antigen coated 20 ng/well. As for the experimental part: as §1

The target of a further test is T3, MASP2-CCP1/2 (human, UniProt O00187 298-443).
T3 construct: also called CCP1/2 domain of MASP-2
T3 sequence (O00187 other isoform, or with tags, fused parts or gaps limits assumed): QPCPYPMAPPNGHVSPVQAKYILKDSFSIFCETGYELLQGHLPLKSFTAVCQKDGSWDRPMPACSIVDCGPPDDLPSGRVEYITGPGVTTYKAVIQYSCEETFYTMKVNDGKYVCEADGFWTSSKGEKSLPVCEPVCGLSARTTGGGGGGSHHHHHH
In words: ELISA, antigen coated 20 ng/well. As for the experimental part:
as §1

In test [3] the target is T4, MASP2-CCP1/2-SP-RQ (human, UniProt O00187 298-686). The test can be described thus: ELISA, antigen coated 20 ng/well. As for the experimental part:
as §1
(§2) The smaller the EC₅₀ and the larger the Top, the stronger the binding effect is.

Test [4] concerns the target T5, MASP2-CCP1/2-SP-RKSA (human, UniProt O00187 298-686). The test can be described thus: ELISA, antigen coated 20 ng/well. The method, then:
as §1, §2

The target of test [5] is T4, MASP2-CCP1/2-SP-RQ. In words: SPR, Biacore 8K, antibody captured on Protein A/G chip, antigen as analyte. An excerpt: (§3) Here, the affinity between the above antibodies and MASP2-CCP1/2-SP-RKSA or MASP2-CCP1/2-SP-RQ was detected by Biacore 8K (GE healthcare). On Biacore 8K, a chip conjugated with Protein A/G was used to capture various antibodies, and then the above two recombinations were used as analytes (Analyte) to flow through the chip to obtain the binding-dissociation curve, and regeneration buffer was used to regenerate the chip and proceed to the next cycle; Biacore 8K Evaluation Software was used to analyze the data.
In general terms: In SPR one partner is held on a chip, and binding of the other changes the refractive index at the surface.

The target of test [6] is T5, MASP2-CCP1/2-SP-RKSA. The description is as above.
Source text: as §3

Another test has as its target T6, MASP2-SP-RQSA (human, UniProt O00187 445-686, limits assumed).
T6 construct: also called SP domain of MASP-2
The test can be described thus: ELISA, plate coated with MASP2-SP-RQSA (20 ng/well), HRP goat anti-human Fc, OD450. As for the experimental part: as §1

A further test addresses T7, MASP1-CCP1/2-SP-RQSA (human, UniProt P48740 299-699).
T7 construct: also called human MASP-1; human MASP1-CCP1/2-SP-RQSA
T7 chain: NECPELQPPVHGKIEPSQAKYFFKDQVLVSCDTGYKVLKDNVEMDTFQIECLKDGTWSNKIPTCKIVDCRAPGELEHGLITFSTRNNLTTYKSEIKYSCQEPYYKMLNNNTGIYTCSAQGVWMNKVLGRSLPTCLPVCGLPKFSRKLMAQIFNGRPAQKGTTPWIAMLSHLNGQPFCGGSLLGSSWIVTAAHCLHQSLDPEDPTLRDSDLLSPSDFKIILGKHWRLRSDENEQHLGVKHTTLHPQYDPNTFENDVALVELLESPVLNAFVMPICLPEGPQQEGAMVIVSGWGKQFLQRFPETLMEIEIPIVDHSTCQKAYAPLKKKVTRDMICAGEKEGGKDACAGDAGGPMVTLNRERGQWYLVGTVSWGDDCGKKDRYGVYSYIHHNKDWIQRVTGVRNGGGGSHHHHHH
In words: ELISA, plate coated with MASP1-CCP1/2-SP-RQSA (20 ng/well), HRP goat anti-human Fc, OD450. As for the experimental part:
as §1

The target of a further test is Human MASP-2 (human, UniProt O00187 16-686). The test can be described thus: cell-based or functional assay.
Chain of Human MASP-2 (O00187 16-686 limits assumed): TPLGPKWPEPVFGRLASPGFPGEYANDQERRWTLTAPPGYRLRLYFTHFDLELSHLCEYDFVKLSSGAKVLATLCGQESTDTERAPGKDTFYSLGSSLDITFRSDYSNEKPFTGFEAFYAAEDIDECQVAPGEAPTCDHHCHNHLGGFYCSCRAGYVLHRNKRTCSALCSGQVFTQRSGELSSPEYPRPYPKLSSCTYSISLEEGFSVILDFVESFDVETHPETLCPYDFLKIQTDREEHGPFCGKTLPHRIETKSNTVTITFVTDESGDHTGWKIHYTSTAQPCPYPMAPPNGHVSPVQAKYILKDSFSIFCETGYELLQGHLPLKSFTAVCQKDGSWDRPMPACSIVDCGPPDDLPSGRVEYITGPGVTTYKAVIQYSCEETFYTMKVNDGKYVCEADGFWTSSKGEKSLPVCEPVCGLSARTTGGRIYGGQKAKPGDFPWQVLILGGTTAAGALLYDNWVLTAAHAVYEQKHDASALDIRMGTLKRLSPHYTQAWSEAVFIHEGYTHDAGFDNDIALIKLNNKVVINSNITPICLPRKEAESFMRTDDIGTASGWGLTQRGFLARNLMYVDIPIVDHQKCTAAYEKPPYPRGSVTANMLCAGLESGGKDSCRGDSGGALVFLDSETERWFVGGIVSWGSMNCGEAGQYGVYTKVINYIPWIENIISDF

T5 sequence (O00187 other isoform, or with tags, fused parts or gaps limits assumed): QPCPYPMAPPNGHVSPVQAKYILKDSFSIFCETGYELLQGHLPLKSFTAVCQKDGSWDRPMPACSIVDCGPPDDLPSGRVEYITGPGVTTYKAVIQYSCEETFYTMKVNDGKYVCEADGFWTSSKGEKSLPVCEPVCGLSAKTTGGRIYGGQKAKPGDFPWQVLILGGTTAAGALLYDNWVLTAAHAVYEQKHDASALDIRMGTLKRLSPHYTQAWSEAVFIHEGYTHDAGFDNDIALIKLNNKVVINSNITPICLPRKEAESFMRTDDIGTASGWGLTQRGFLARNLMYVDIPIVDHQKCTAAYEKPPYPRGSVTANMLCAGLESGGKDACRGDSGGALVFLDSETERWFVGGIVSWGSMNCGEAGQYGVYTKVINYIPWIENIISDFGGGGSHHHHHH
T4 sequence (O00187 other isoform, or with tags, fused parts or gaps limits assumed): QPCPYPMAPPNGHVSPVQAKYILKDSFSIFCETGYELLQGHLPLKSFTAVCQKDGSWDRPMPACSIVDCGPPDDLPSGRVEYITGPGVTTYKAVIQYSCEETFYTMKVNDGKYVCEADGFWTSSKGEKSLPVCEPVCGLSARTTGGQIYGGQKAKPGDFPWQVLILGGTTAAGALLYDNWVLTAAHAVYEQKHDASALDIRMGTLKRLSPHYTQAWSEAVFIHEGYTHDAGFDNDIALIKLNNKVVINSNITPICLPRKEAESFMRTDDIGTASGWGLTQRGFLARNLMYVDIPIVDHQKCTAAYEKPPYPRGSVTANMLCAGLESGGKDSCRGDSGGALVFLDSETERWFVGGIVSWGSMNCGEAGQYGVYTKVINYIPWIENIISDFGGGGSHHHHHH
Chain of Mouse MASP2-CCP1/2-SP-RQSA (Q91WP0 other isoform, or with tags, fused parts or gaps limits assumed): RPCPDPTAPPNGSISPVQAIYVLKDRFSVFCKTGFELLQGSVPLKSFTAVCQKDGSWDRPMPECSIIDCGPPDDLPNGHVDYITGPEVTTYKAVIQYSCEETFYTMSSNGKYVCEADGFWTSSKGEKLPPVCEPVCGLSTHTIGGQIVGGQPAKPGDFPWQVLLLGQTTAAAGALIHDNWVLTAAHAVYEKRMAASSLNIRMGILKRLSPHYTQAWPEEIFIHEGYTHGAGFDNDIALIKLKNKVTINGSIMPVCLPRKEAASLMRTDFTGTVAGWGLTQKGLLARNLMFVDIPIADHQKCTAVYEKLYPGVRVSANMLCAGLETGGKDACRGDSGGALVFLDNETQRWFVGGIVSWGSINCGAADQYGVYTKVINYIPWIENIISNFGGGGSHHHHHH
T6 sequence (O00187 other isoform, or with tags, fused parts or gaps limits assumed): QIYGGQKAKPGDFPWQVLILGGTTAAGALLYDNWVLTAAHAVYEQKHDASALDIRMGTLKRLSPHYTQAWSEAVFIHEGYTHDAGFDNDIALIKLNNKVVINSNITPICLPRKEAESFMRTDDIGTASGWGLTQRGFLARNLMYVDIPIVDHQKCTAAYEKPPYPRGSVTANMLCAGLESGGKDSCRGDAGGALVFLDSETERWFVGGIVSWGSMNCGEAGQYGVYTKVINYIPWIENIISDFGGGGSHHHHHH

B1: Narsoplimab (antibody, human IgG4 S228P, lambda, V domains shown)
VH: QVTLKESGPVLVKPTETLTLTCTVSGFSLSRGKMGVSWIRQPPGKALEWLAHIFSSDEKSYRTSLKSRLTISKDTSKNQVVLTMTNMDPVDTATYYCARIRRGGIDYWGQGTLVTVSS
VL: QPVLTQPPSLSVSPGQTASITCSGEKLGDKYAYWYQQKPGQSPVLVMYQDKQRPSGIPERFSGSNSGNTATLTISGTQAMDEADYYCQAWDSSTAVFGGGTKLTVLG
notes: also called positive control antibody; Control Narsoplimab
What is called EC50 is the midpoint of the concentration-response curve. Low values mean higher potency in that assay, high ones lower potency in that assay. With B1, the EC50 in [1] amounted to 0.169 nM; with Rat MASP2-CCP1/2-SP-RQSA, 0.455 nM. Besides, the binding result in the test with MASP3-CCP1/2-SP-RQSA is “no binding (tested: 100 nM (Log(Ab nM) = 2))”.

B2: 169-IgG4 (antibody, V domains shown)
VH: QVQLQESGPGLVKPSETLSLTCTVSGGSISSSSYYWGWIRQPPGKGLEWIGSIYYSGSTYYNPSLKSRVTISVDTSKNQFSLKLSSVTAADTAVYYCARDRRGRFDPWGQGTMVTVSS
VL: SYELMQPPSMSVSPGQTASITCSGDKLGDIYAYWYQQKPGQSPVLVIYQDNKRPSGIPERFSGSNSGNTATLTISGTQAMDEADYYCQAWESSTGVFGGGTKLTVLG
notes: expressed in HEK293F; also called preferred antibody
What is called Kd is the concentration at which binding is half-saturated. As a reminder, the koff is the first-order rate constant of dissociation. The kon is a measure of how fast the partners come together. Turning to B2, the EC50 amounted to 0.19 nM in test [1]; 0.136 nM in test [2]; 0.146 nM with MASP2-CCP1/2; 0.231 nM with Rat MASP2-CCP1/2-SP-RQSA; 0.136 nM with MASP2-CCP1/2-SP-RQ [3]; 0.106 nM in the test with MASP2-CCP1/2-SP-RKSA [4]. In addition, the binding result in the test with MASP3-CCP1/2-SP-RQSA, with MASP2-SP-RQSA and in the test with MASP1-CCP1/2-SP-RQSA was “no binding (tested: 100 nM (Log(Ab nM) = 2))” each time. In addition, the Kd in the test with MASP2-CCP1/2-SP-RQ [5] amounted to 4.82 nM; with MASP2-CCP1/2-SP-RKSA [6], 38.6 nM. The koff with MASP2-CCP1/2-SP-RQ [5] was found to be 0.00361 s⁻¹; with MASP2-CCP1/2-SP-RKSA [6], 0.00382 s⁻¹. Also, the kon was determined as 750000 M⁻¹ s⁻¹ with MASP2-CCP1/2-SP-RQ [5] and 99200 M⁻¹ s⁻¹ with MASP2-CCP1/2-SP-RKSA [6]. Moreover, the “IC50 of C3 deposition on mannan-coated microplates (40 µg/ml mannan, 1% human plasma)” value in the test with Human MASP-2 was 0.0888 nM. Moreover, in the test with Human MASP-2, the “IC50 of C3 deposition on mannan-coated microplates (100 µg/ml mannan, 1% human plasma)” value worked out at 0.0996 nM.
